Data from US20020009436A1, “Methods and compositions for inhibiting adhesion by microorganisms” (priority 1999, published 2002).

What was measured:
S. pyogenes [1] = test: Adhesion of S. pyogenes to buccal epithelial cells (coaggregation slides); assay type: cell-based, Streptococcus pyogenes
Experimental: This experiment began with growing and harvesting of five strains of S. pyogenes, including M14 Lowe, YL3, M24 and T2/MR. The strains were grown in BHI broth in a 37 degree incubator overnight. The cultures were grown under static conditions. The cells were then harvested by washing twice with phosphate buffer (pH=7). Treatment of the cells with polyphenol oxidase and asparaginase began with finding the optical density of the stock solution of harvested cells. This was done using a spectrophotometer. Each strain was treated with two concentrations of polyphenol oxidase (100 μg/OD and 300 μg/OD) and one concentration of asparaginase (300 μg/OD). The treatment of the cells with polyphenol oxidase took place in the 37 degree incubator for 1.5 hours. The cells were then washed twice with phosphate buffer (pH 7). At this time, a coaggregation was made and allowed to set at static conditions for two hours. Slides were then made of each coaggregation.
The treatment of the cells with asparaginase also took place in the 37 degree incubator for three hours. Before treatment, the cells were washed twice with phosphate buffer of pH=8. After treatment, they were washed twice with phosphate buffer of pH=7. Coaggregations and slides were then made as for polyphenol oxidase.
The buccal cells were harvested from the inner cheeks using cotton swabs. […]

[2] = tested on: A. naeslundii ATCC 12104 (adhesin) / Capnocytophaga ochracea (receptor); test: Coaggregation A. naeslundii ATCC 12104 / Capnocytophaga ochracea; conditions: A. naeslundii ATCC 12104 (adhesin) enzyme treated; polyphenol oxidase 90 U/ml, asparaginase 20 U/ml
Experimental: S. sanguis 10556, A. naeslundii strains 12104 and T14V and E. coli were grown static cultures in Todd-Hewitt broth (BBL Microbiology Systems, Cockeysville, Md.). P. gingivalis W50, A. actinomycetemcomitans and C. ochracea were grown in brain heart infusion broth (BBL). F. nucleatum 22586 and P. intermedia 25611 were grown in modified Schaedler broth (BBL). All oral species except S. sanguis 10556 were incubated at 37° C. as static cultures under an anaerobic atmosphere containing H2, CO2 and N2(10:10:80) with GasPaks (BBL). S. sanguis was incubated at 37° C. as static cultures in 5% CO2.
Bacteria were harvested in the mid to late exponential growth phase by centrifugation (10,000×g for 10 min at 4° C.). The cells were washed twice in coaggregation buffer (30 mM 3-[N-morpholino]propanesulfonic acid (MOPS), pH 7.0) and adjusted to an optical density of 0.6-0.8 at 540 nm (1-cm path). […]
Coaggregation was assessed by turbidity changes. Following mixing of the cells for 10 s on a Vortex mixer, absorbance readings were made every 30 min. The percentage of coaggregation was calculated from the following formula: Percent coaggregation=[OD540(A)+OD540(B)−OD540(A+B)]/(OD540(A)+OD540(B)), where A is the control containing cells of one strain, B is the control containing cells of the other strain, and A+B is the reaction mixture containing both cells. […]

Salmonella enteritidis = test: Hemagglutination of horse red blood cells by Salmonella enteritidis; assay type: cell-based; set-up: key: + Hemagglutination; − No hemagglutination; conditions: 2 hr incubation, polyphenol oxidase 70 U/ml, asparaginase 65 U/ml
Experimental: Three Salmonella enteritidis clinical isolate strains, SE 79, SE 89-8312 and SE S1-072-Z were used. The bacterial strains were grown statically in brain heart infusion (BHI) broth for 48 h at 37° C. The cells were harvested by centrifugation and washed twice in 10 mM phosphate buffer (PB) pH 7.5. The final bacterial pellet was then suspended in the same buffer to the desired density.
Bacterial suspensions OD 1.0 (5 ml each) were mixed in the absence and presence of polyphenol oxidase (70 U/ml) or asparaginase (65 U/ml) and incubated statically at 37° C. for 2 h. The cells were then centrifuged and washed 2 times with PB (pH 7.5) and were suspended at a final volume 125 μl. These cells were subjected to hemagglutination tests.
For hemagglutination studies, red blood cells from horse were used. The red blood cells were washed with PBS (pH 7.5) by low speed centrifugation 10 min and suspended to 2% in the same buffer.

S. pyogenes [3] = tested on: S. pyogenes
[4] = tested on: E. coli / urinary epithelial cells (UECs); test: Binding of E. coli to urinary epithelial cells, microscopy (Experiment 1); assay type: cell-based; conditions: FIG. 4; greater with increasing concentration or duration of incubation
Experimental: Urinary epithelial cells (UEC) were obtained by a method known to those of skill in the art. Briefly, the cells were obtained by centrifugation (5000×g) of 200 ml of clean-catch-collected first morning male urine. Cells were washed 3× in PBS and suspended to a density of 1×10^9 cells/ml in an end-over-end apparatus. After 30 minutes mixtures were collected on polycarbonate filters (pore size=10 μm) and washed with three volumes of cold PBS. Filters were pressed onto glass microscope slides which are then heat-fixed and stained with crystal violet for 2 min. Slides were examined at 1000× with phase-contrast microscopy. For each experimental condition 200 UEC's are examined. Adherent bacteria were quantitated as described in previous Examples.

[5] = tested on: endogenous bacteria attached to UECs; test: Removal of endogenous biota from sloughed urinary epithelial cells; assay type: cell-based; conditions: for Percent UECs with ≧30 Bacteria Attached: PBS 30
Experimental: Sloughed epithelial cells were incubated with the enzymes, collected by filtration, transferred to microscope slides and stained with crystal violet. Then 50 epithelial cells from each slide were randomly assessed for the numbers of bacteria associated with them and placed into one of four categories: Cells with 0-9, 10-29, 30-49, or >50 bacteria associated with them.

[6] = tested on: S. epidermidis (clinical isolate); test: Fibronectin binding assay, S. epidermidis; assay type: cell-based; conditions: polyphenol oxidase 80 U/ml, asparaginase 20 U/ml, untreated 0.17
Experimental: Wells were filled with human serum fibronectin (50 μg/ml) diluted in carbonate buffer (50 mM Na2CO3—NaHCO3, pH 9.5 overnight). Controls were coated with 1% BSA. The wells were washed three times with PBS and incubated with PBS-Tween (0.5% Tween 20 and 0.05% NaN3) 1 h at 37° C. After attachment, the wells were washed three times with PBS-Tween and allowed to dry. Subsequent assays were as described hereinabove.

[7] = tested on: S. sobrinus glucosyltransferase; test: Purified S. sobrinus glucosyltransferase treated with asparaginase; assay type: biochemical
Experimental: Glucosyltransferase activity was detected as described in the art, with some modifications described hereinbelow. Protein samples were mixed with electrophoresis sample buffer and incubated for 1 to 4 h at 37° C. before the gel was run. Nonfixed gels were incubated in 50 mM sodium acetate (pH 5.5) containing 1% vol/vol Triton X-100, 2 % (wt/vol) sucrose, and 0.07% (wt/vol) NaN3 at 37° C. for 24 h. Gels were also incubated in the same buffer with glucan T2000 (2 to 4 mg/ml) or fluorescein isothiocyanate-conjugated glucan T-10 (2 mg/ml) to detect both glucosyltransferases and glucan binding proteins (GBPs). After incubation, the gels were fixed for 30 min in 75% ethanol and rocked on a shaker for 30 min with 0.7% periodic acid in 5% acetic acid. The gels were then shaken for 1 h in 0.2% (wt/vol) sodium metabisulfite in 5% acetic acid. After two additional treatments in sodium metabisulfate and acetic acid, the gels were placed in Schiff's reagent for 0.5 to 1 h. Finally the gels were washed extensively in 45% methanol-45% acetic acid-10% H2O for destaining. In some experiments, purified protein was treated with 100 μg/ml polyphenol oxidase for 1 h, or with asparaginase, before loading on the gel.

B1: asparaginase: enzyme that catalyzes hydrolysis of the side chain amide group of asparagine to a carboxyl group; E. coli asparaginase (protein, UniProt P00805 23-348, looked up)
L-asparaginase 2: LPNITILATGGTIAGGGDSATKSNYTVGKVGVENLVNAVPQLKDIANVKGEQVVNIGSQDMNDNVWLTLAKKINTDCDKTDGFVITHGTDTMEETAYFLDLTVKCDKPVVMVGAMRPSTSMSADGPFNLYNAVVTAADKASANRGVLVVMNDTVLDGRDVTKTNTTDVATFKSVNYGPLGYIHNGKIDYQRTPARKHTSDTPFDVSKLNELPKVGIVYNYANASDLPAKALVDAGYDGIVSAGVGNGNLYKSVFDTLATAAKTGTAVVRSSRVPTGATTQDAEVDDAKYGFVASGTLNPQKARVLLQLALTQTKDPQQIQQIFNQY
- binding of bacteria to buccal cells (S. pyogenes [1]; asparaginase 300 μg/OD, three hours): reduced binding
- reduction in adhesion compared with polyphenol oxidase (S. pyogenes [1]; equivalent amount): greater reduction in adhesion than an equivalent amount of polyphenol oxidase
- Inhibition % of coaggregation [2]: 25%
- Hemagglutination (Salmonella enteritidis; SE 79, dilution 1/1): +
- Hemagglutination (Salmonella enteritidis; SE 79, dilution 1/2): −
- Hemagglutination (Salmonella enteritidis; SE 79, dilution 1/4): −
- Hemagglutination (Salmonella enteritidis; SE 79, dilution 1/8): −
- Hemagglutination (Salmonella enteritidis; SE 79, dilution 1/16): −
- Hemagglutination (Salmonella enteritidis; SE 79, dilution 1/32): −
- Hemagglutination (Salmonella enteritidis; SE 79, dilution 1/64): −
- Hemagglutination (Salmonella enteritidis; SE 79, dilution 1/128): −
- Hemagglutination (Salmonella enteritidis; SE 89-8312, dilution 1/1): −
- Hemagglutination (Salmonella enteritidis; SE 89-8312, dilution 1/2): −
- Hemagglutination (Salmonella enteritidis; SE 89-8312, dilution 1/4): −
- Hemagglutination (Salmonella enteritidis; SE 89-8312, dilution 1/8): −
- Hemagglutination (Salmonella enteritidis; SE 89-8312, dilution 1/16): −
- Hemagglutination (Salmonella enteritidis; SE 89-8312, dilution 1/32): −
- Hemagglutination (Salmonella enteritidis; SE 89-8312, dilution 1/64): −
- Hemagglutination (Salmonella enteritidis; SE 89-8312, dilution 1/128): −
- Hemagglutination (Salmonella enteritidis; SES1-0072-Z, dilution 1/1): +
- Hemagglutination (Salmonella enteritidis; SES1-0072-Z, dilution 1/2): −
- Hemagglutination (Salmonella enteritidis; SES1-0072-Z, dilution 1/4): −
- Hemagglutination (Salmonella enteritidis; SES1-0072-Z, dilution 1/8): −
- Hemagglutination (Salmonella enteritidis; SES1-0072-Z, dilution 1/16): −
- Hemagglutination (Salmonella enteritidis; SES1-0072-Z, dilution 1/32): −
- Hemagglutination (Salmonella enteritidis; SES1-0072-Z, dilution 1/64): −
- Hemagglutination (Salmonella enteritidis; SES1-0072-Z, dilution 1/128): −
- inhibition of growth of S. pyogenes (S. pyogenes [3]): did not significantly inhibit growth
- binding of bacteria to urinary epithelial cells [4]: reduced binding
- numbers of UECs with large numbers of endogenous bacteria [5]: little or no effect
- Percent UECs with ≧30 Bacteria Attached ([5]; asparaginase 5 U/ml, 30 minute incubation): 28%
- Percent UECs with ≧30 Bacteria Attached ([5]; asparaginase 10 U/ml, 30 minute incubation): 26%
- effects on the numbers of endogenous bacteria attached to UECs ([5]; polyphenol oxidase 70 or 140 U/ml, asparaginase 5 or 10 U/ml, 30 minute incubation): relatively minor effects
- Absorbance (fibronectin) [6]: 0.16
- binding by the glucosyltransferase to high molecular weight dextrans [7]: reduced binding
- activity gel (hydrolysis of sucrose following renaturation of an SDS-PAGE gel) ([7]; not shown): loss of activity
- glucan binding, enhanced chemiluminescence gel ([7]; not shown): loss of glucan binding
